Data from article PMC4049620.

Legend:
[1] = target: T9 SipA_(36-173), N-terminally His-tagged (entire extracellular region of SipA from S. pyogenes serotype T9 strain 90/306S) (Streptococcus pyogenes serotype T9 strain 90/306S); test: crystal structure; Space group P6_(4)22, two molecules in the asymmetric unit; octamer built by crystal symmetry; crystals grown at 18°C from 1 M NaKPO4 pH 7.0, 8% MPD
[2] = target: T9 SipA_(36-173), N-terminally His-tagged (entire extracellular region of SipA from S. pyogenes serotype T9 strain 90/306S) (Streptococcus pyogenes serotype T9 strain 90/306S); test: SEC + other: dynamic light scattering; Superdex S200 10/300 in 10 mM Tris.Cl pH 8.0, 100 mM NaCl; single peak, species of about 150 kDa after glycine treatment; data not shown
[3] = target: T9 SipA_(36-173), N-terminally His-tagged (entire extracellular region of SipA from S. pyogenes serotype T9 strain 90/306S) (Streptococcus pyogenes serotype T9 strain 90/306S); test: SAXS; Australian Synchrotron SAXS/WAXS beamline; dilution series 1-20 mg/ml; experimental curve compared by CRYSOL with the curve calculated from the crystal octamer (chi^2 = 1.29)

Measured: stoichiometry N

T9 SipA_(36-173), N-terminally His-tagged (entire extracellular region of SipA from S. pyogenes serotype T9 strain 90/306S) (domain or fragment)
8: all assays above
